These results are taken from US20110243967A1.

Test [1] has as its target pMCMV-loaded H-2 L^d (mouse) (UniProt P01897).
Test [2] has as its target SL9-loaded H-2 L^d (mouse) (UniProt P01897). Put plainly: flow cytometry, direct saturation of FITC-30.5.7 Fab on peptide-loaded RMA-S L^d cells.
Test [3] concerns the target QL9-loaded H-2 L^d (mouse) (UniProt P01897). The description is as above.
Test [4] has as its target p2Ca-loaded H-2 L^d (mouse) (UniProt P01897). The description is as above.
Test [5] concerns the target SIY-loaded H-2 K^bm3 (mouse). In words: flow cytometry on peptide-loaded T2 K^bm3 cells. For orientation: In flow cytometry, cells or beads pass a laser one at a time.
For test [6], the target named is p2Ca-loaded H-2 L^d (mouse) (UniProt P01897). In words: flow cytometry, serial dilutions on p2Ca-loaded RMA-S L^d cells, detection with H57-FITC.
Chain of p2Ca-loaded H-2 L^d (mouse) (P01897 25-362): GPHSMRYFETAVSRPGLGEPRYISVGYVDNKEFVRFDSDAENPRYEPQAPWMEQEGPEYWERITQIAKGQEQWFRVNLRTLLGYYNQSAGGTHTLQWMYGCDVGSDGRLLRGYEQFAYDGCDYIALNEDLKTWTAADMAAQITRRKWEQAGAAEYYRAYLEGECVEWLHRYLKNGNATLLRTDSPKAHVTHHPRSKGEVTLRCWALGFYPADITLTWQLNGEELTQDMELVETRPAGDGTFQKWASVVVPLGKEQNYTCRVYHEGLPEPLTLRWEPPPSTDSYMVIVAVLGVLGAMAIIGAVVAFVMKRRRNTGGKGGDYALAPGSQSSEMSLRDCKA
The target of test [7] is QL9-loaded H-2 L^d (mouse) (UniProt P01897). In words: flow cytometry, serial dilutions on QL9-loaded RMA-S L^d cells, detection with H57-FITC.
Chain of QL9-loaded H-2 L^d (mouse) (P01897 25-362): as above
Test [8] deals with p2Ca-loaded H-2 L^d (mouse) (UniProt P01897). Put plainly: competition with constant FITC-30.5.7 Fab on peptide-loaded RMA-S L^d cells, flow cytometry.
Test [9] has as its target QL9-loaded H-2 L^d (mouse) (UniProt P01897). In words: flow cytometry on RMA-S L^d cells loaded with 100 µM peptide; two-fold dilutions of soluble monovalent 2C TCR, detected with H57-FITC.
For test [10] the target is unchanged. Put plainly: flow cytometry on L^d cells loaded with graded peptide concentrations.
In test [11] the target is p2Ca-loaded H-2 L^d (mouse) (UniProt P01897). The description is as above.
For test [12], the target named is unloaded H-2 L^d on RMA-S L^d cells (mouse) (UniProt P01897). In words: flow cytometry on RMA-S L^d cells, no peptide, bar '37 degrees'; mAb 30.5.7 then PE-labelled goat anti-mouse IgG.
Chain of unloaded H-2 L^d on RMA-S L^d cells (mouse) (P01897 25-309): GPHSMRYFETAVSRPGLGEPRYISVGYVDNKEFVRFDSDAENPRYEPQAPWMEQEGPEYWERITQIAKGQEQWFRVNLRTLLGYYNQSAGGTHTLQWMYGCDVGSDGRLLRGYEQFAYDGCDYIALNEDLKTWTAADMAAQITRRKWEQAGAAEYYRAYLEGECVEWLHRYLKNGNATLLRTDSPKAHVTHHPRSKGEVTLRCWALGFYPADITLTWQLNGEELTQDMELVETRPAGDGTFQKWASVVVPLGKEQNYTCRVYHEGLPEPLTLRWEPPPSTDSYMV
Test [13] addresses SL9-loaded H-2 L^d (mouse) (UniProt P01897). In words: flow cytometry on peptide-loaded RMA-S L^d cells; mAb 30.5.7 then PE-labelled goat anti-mouse IgG.
For the next test, the target named is tum (mouse). The description is as above.
For test [14], the target named is QL9-loaded H-2 L^d (mouse) (UniProt P01897). The description is as above.
For test [15], the target named is p2Ca-loaded H-2 L^d (mouse) (UniProt P01897). The description is as above.
Test [16] concerns the target serologically reactive H-2 L^d on RENCA cells (murine) (UniProt P01897). In words: flow cytometry on γ-IFN stimulated RENCA cells (5-50 units/ml).
Test [17] shares this target. Put plainly: flow cytometry on unstimulated RENCA cells.
The target of test [18] is unloaded H-2 L^d on RMA-S L^d cells (mouse) (UniProt P01897). In words: flow cytometry on RMA-S L^d cells, no peptide, bar '22 degrees' (the legend says 27°C); mAb 30.5.7 then PE-labelled goat anti-mouse IgG.
Test [19] deals with pMCMV-loaded H-2 L^d (mouse) (UniProt P01897). The source holds these as a separate data set.
Chain of pMCMV-loaded H-2 L^d (mouse) (P01897 25-309): as above

A value given as a limit tells only on which side of the number the result lay.

Chain of serologically reactive H-2 L^d on RENCA cells (murine) (P01897 25-362): as the sequence (P01897 25-362) above
Chain of SL9-loaded H-2 L^d (mouse) (P01897 25-309): as the sequence (P01897 25-309) above
Chain of soluble divalent 2C TCR/Ig (A2KF29 whole entry, looked up, tested part not stated): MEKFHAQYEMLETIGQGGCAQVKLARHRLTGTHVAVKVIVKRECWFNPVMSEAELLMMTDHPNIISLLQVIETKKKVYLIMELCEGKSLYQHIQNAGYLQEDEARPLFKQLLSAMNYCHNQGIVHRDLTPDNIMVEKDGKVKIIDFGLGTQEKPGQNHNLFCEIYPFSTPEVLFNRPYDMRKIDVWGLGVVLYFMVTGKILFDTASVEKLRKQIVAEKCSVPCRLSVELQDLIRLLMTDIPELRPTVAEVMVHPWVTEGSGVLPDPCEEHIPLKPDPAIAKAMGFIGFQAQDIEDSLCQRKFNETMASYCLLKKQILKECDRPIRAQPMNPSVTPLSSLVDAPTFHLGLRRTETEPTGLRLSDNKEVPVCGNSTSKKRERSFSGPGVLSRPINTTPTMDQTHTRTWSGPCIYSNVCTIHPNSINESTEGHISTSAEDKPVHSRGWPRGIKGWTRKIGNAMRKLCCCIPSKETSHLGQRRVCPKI

As for FITC-labeled 30.5.7 Fab, the Kd (usually the free concentration of one partner at which half of the binding sites on the other are occupied at equilibrium, for simple one-to-one binding) was 4.8 nM in test [1], 4.8 to 6.4 nM in test [2], 12.2 nM in [3] and 5.8 nM in [4].
“soluble divalent 2C TCR/Ig (from UniProt A2KF29)” gave an MCF in test [5] of 36.
soluble monovalent 2C TCR displayed a concentration required to detect binding in test [6] above 3000 nM. In test [7], this substance registered a concentration required to detect binding above 100 nM. In [8], this substance displayed a Kapp above 2000 nM and a Kd above 2000 nM. Further, in [9], the EC50 (read off the curve) (commonly the concentration at which the effect is half-maximal) amounted to 300 nM.
Consider mAb 30.5.7 (antibody), for which the MCF in [10] is 3000; in [11] it was 3000; in test [16], 2670 to 3040; in test [17] it was 500. Besides, the Mean Channel Fluorescence came out at 60 in [12]; 556 in test [13]; 578 with tum (mouse); 688 in [14]; 693 in test [15]; 347 in [18]. The Mean Channel Fluorescence in [19] amounted to 648; with gp 70 (mouse), 677.
